In US10556936B2, “Immunogenic proteins and fragments thereof from allergenic mites” (ALK-ABELLÓ A/S, priority 2016, dated 2020):

What was measured:
Format in all cases: cell-based, human
[1] = tested on: basophils in whole blood from HDM allergic donors; assay: Basophil Activation Test (BAT); settings: for % responding donors in BAT Assay: responding donors of tested HDM allergic donors, whole blood stimulated 1 h; for # of individuals of 14 with positive BAT test: blood from HDM allergic individuals (n=14)
Method in brief: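 Whole blood from HDM-allergic donors (n=14) was stimulated for 1 h with test proteins across a concentration range, e.g. 1, 10, 100 or 1000 ng/ml. Basophil surface activation markers were measured by flow cytometry, with Der p 1 and Der p 2 tested at the same concentrations as controls.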

[2] = tested on: HDM specific T-cell lines from HDM allergic donors; assay: T cell reactivity of protein: IL-5/IFNg FluoroSPOT or 72 h T cell proliferation in HDM specific T-cell lines (Example 2); settings: responding donors of tested HDM allergic donors
Source text: PBMCs from European HDM-allergic individuals were recruited in the Copenhagen region (defined by clinical history of allergy to house dust mite and specific IgE to group 1 and group 2 major allergens from Der p and/or Der f and with measured specific IgE (CAP) >0.7 kU/L towards Der p/f 1 or Der p/f 2. In addition, PBMCs from 10 US HDM-allergic individuals were recruited in San Diego (defined by Der p extract IgE titers greater than 0.35 kUA/L). PBMCs were isolated from whole blood by density gradient centrifugation according to manufacturers' instructions (Ficoll-Hypaque, Amersham Biosciences, Uppsala, Sweden). Der p- and Der f-specific extract IgE titers were determined using the ImmunoCAP system (Thermo Fisher, Uppsala, Sweden). In a separate series of experiments, pooled plasma from 10 European and 10 American HDM atopic individuals from the San Diego region, respectively, was utilized to run 2D immunoblots to elucidate IgE and IgG reactivity towards the proteins, which had at least one peptide with positive T cell response.
T cells reactivity was determined by establishment of HDM specific T-cell lines according to standard methods. In short, PMBCs from HDM allergic donors were cultured for 2-3 weeks in the presence of house dust mite allergen extract. The responses to proteins having SEQ ID NOs 1-44 were assessed by IL-5/IFNg FluoroSPOT (Mabtech FS-0108-10) according manufacturer protocol, (after 2 weeks) or proliferation in a standard 72 h T cell proliferation assay, as described in Henmar H et al., Clin Exp Immunol 2008; 153(3):316-23. (after 3 weeks). In addition these established T cell lines were used for further characterization and epitope mapping.

[3] = tested on: T cell lines obtained from HDM allergic individuals and non-allergics; assay: In vitro T cell proliferation test in T cell lines (Example 3); settings: 0.5 or 2 ug/ml, 72 h
Method in brief: (§1)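 Freshly isolated PBMC (5×10^6/ml) from mite-allergic patients or non-allergics cultured 5 days with test protein up to 10 ug/ml; IFN-gamma, IL-9, IL-10, IL-17, IL-31 in supernatants by multiplex immunoassay. T cell lines, raised 3 weeks on HDM extract, tested at 0.5 or 2 ug/ml protein in 72 h proliferation assay.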

[4] = tested on: PBMC cells obtained from mite allergic patients and non-allergics; assay: Ex vivo stimulation of PBMC: cytokine production (IFN-gamma, IL-9, IL-10, IL-17, IL-31)
Method in brief: as §1

B1: 3 (protein, listed as Dermatophagoides pteronyssinus)
chain: MAIDGKYQMESSEHFEEFVKEMGLDVDMTNVDLSKTSTMEICKDGDVYHIKSETAGIAHEIKFKVGEEFEDDMNGHKFKNVVTMECDNKMVQKKTSADGGKVVNVVREFTDAGCTVKSTYNTVTWTRVYKRM
% responding donors in BAT Assay [1]: 0 of 16 | % T cell responding donors to protein [2]: 1 of 29

B2: 31 (protein, listed as Dermatophagoides pteronyssinus)
chain: MAKFNYLPVDVQEELRNTANAIVSVGKGILAADESTGTIGKRFADINVENVEQNRQAYRQLLFYSEGIEQYISGVILFDETVYQKDDKGVPFPELLKKKGIIPGIKVDTGVVTLQGTNGESTTQGLDNLTKRCQEYYNQGCRFAKWRCVLKIGQDEPSSLAIVENANVLARYASCCQQARIVPIVEPEILPDGDHNLERCQKVTETVLAAVYKALNDHHVYLEGTLLKPNMVTPGQSCPQKASPQEVAQATVTALQRTVPAAVPGIVFLSGGQSEEEASVNLNAINQYQGKKPWALSFSYGRALQASALRAWQGKPENIGAGQKELLQRAKANVLAHKGQYVAGSIPSLASAKSNFVAQHKY
% responding donors in BAT Assay [1]: 0 of 8 | % T cell responding donors to protein [2]: 6 of 27

B3: 44 (protein, listed as Dermatophagoides pteronyssinus)
chain: VVIKVENLPEQCDYTQCPKWSKDDINVHLVAHTHDDVGWLKTVEQYYYGLKNDIQRAGVQYILDTMIEELIRNKDRRFIYVEIAFFWKWWQEQNEEQRMIVKELVRTGQLEFINGGWSMPDEAATHYNSLIDQSTWGLRQLNDTFGRCGHPKVTWQIDPFGHSKEMANLYAQMGYDALFFARQDYQDRENRMSNRTLEHVWQGSDDLGEIGDIFTGMMFSGYGPIEFNWDITNGPEDAVVDNPESEEYNVPDKIRRFVEKAKYFGQFYATNHFMFPMGTDFQYTDAHTWFKNLDKLINAVNKAGKGVRAFYSTPSCYAHALYEQNRTWTTKTDDFFPYASDEHAYWTGYFTSRPAIKRMERIGNNLLQACKQLDVLADNNGRFEMNLTKMREAMGVMQHHDAVTGTEKQHVAFNYAKMLDSAMLQCRHIINESYKKLLPKSSTSEHEFCPYLNISSCPTTEMGESRIIYLYNPLGHRLINHTVRLPIKNGYYYRIQDQNNQSVPSVLVPIPEFVQKIPGRKSVATKELVFRVPVIEPLGITTMYMYVDKNEQPNSAIEIKGENPDDNDDKSKWLVLTKNLIVEFYSNGTISRISIDKLHQSISISNEFRLYHGAGGTGRHSGAYIFRPNEQKTFPVTNKIKSTFFIDRKYHIVQEVHQQFDSSFVGQIIRMDKYNDNVEFDFVVGPIPVNDQIGKEIIASYKTDLENDETFYTDANGRQMLRRRWNYRPSWKYNVQEPISGNYYPVNSRIAIRDEKQSLQMTIMTDRSQGGSLSPEQINGSIDIMIHRRLLHDDYFGVGEALNEPGVDGHGLVIRGKHLLLLNSIKQSASEHRPLAQQMFMEPIISFTSIESNKQAEKQSNQYIGLNNDLPSNVHLLTLEQWHSKRYLLRLEHFYQSNEDTELSKPVKLSLRHLFKSFEIIAVEELTLGANQPISSLKNRLHYRYNRPLEQRQQQQSSLLLDDPKIEGENFDIHLSPMQIRTFLIDIKRN
% T cell responding donors to protein [2]: 7 of 24

B4: 4 (protein, listed as Dermatophagoides pteronyssinus)
chain: QVYCNGAAIVSAARSQIGVPYSWGGGGIHGKSRGIGEGANTVGFDCSGLAQYSVYQGTHKVLARVASGQYSDPKCHHVAYGSHQPGDLVFFGNPIHHVGIVSAHGRMINAPHTGTNVREENIWSDHIANVARCW
% T cell responding donors to protein [2]: 8 of 24

B5: 16 (protein, listed as Dermatophagoides pteronyssinus)
chain: MSKPIFYYHPFSGPCRTVSTVAKILNVDMEMKKLDLLTKEHLNPEFLKVNPFHKVPTFVDSDGFVVDESRVIAMYLVESRKPDSFLYPKNDLKKRIQIDRWLHYDINLSTTISAPMFCVFRGHQVQDYQVEQGKETLKTLDGVMQSFEGKFLTGADQFTLADIAMYFSLNTMEVYPKYFKFDDYPNLKSWYHRVAEALKQYDTEGTIPKAIETMKQFIQQRAAEAEKH
% T cell responding donors to protein [2]: 3 of 24

B6: 20 (protein, listed as Dermatophagoides pteronyssinus)
chain: NWQMVWQDEFNGGHLDQNHWEFETGGGGWGNNELEFYTANRSQNVRVENGHLVIDVRVESYGGRDFTSGRIHSKQAWAYGKFEARARLPSGHHLWPAIWMFPRDSKYGPWAASGEIDIMEYRGDVHDKIEGTIHYGGQWPNNIYTGSGPHHFNVDFSKDFHNFAVEWDTKEIRWYMDGNKYFSVNIDRNMWSGKGNNPYNKNGQPFDQPFRWILNVAVGGNFFGPGPYVTPDQARHWQKHTMEIDYVRVYQWR
% T cell responding donors to protein [2]: 6 of 24

B7: 24 (protein, listed as Dermatophagoides pteronyssinus)
chain: DPVQQRPTLRGVTVRVGPFVKENNGKFEGFIPDLVQAISEKVGFDYTLYLSPDGRYGNVISDGNVTGMIGEVYNKKADFAAADLTMTEARENYITFTEPFMINQLAALIRREDAEGLNTLEDLAKAQETFPKRKRIVLGTLRNGATNYFLSKSDDPLAKKIYEQIKADDQSVVKSISEGVERVDKQGGYAFIMESASAEHEIANNCKLTMLLDWRNLFPRKYAFALPKDSPYLEHFNNAIKQLNSEGKIAELRRKYWANNCAENKTKDDKN
% T cell responding donors to protein [2]: 3 of 24

B8: 12 (protein, listed as Dermatophagoides pteronyssinus)
chain: MSISAHGGGLVNGIAGMENKFTVFTSGKPVSGLTVAFEGPTKPEINFNSTKDGSVDVGYIPKAGGQYKIHIKYEGKEIVGSPFKCNISGDESTHRKLTEKVKVGGPNISTGKVNQDNQLTIDCKEAGITGGISFAMEGPAKVEVSFRNNNDGTITVIYKPPTPGDYKLHLKFNDIHLPGSPYPIVVSA
% T cell responding donors to protein [2]: 5 of 24

B9: 18 (protein, listed as Dermatophagoides pteronyssinus)
chain: QSLFVDYNDYSCGSSQNETNELIQEFKIFKKNINGNENFKKINDFIEKARLFRDNAAKQMLEIDQQLLTLNVIQISQRIKLENNKIQCEKLTKFSELLSMQLLAYEVGMFEFAEEIDPNIDFDRKMKNFLDETSRLFNLAEFEKLEKKFRNATSIEKLKNYIDGELVALNDYINEFLKDIIMSEFTVQSRYYLNFSIEDQVQIDSTLMTFSALKILLNDLKDYLEHLDN
% T cell responding donors to protein [2]: 0 of 24

B10: A007: house dust mite protein; SEQ ID NO: 30 (Der f), 31 (Der p), 306 (Blo t) (protein)
chain: MAKFNYLPVDVQEELRNTANAIVSVGKGILAADESTGTIGKRFADINVENVEQNRQAYRQLLFYSEGIEQYISGVILFDETVYQKDDKGVPFPELLKKKGIIPGIKVDTGVVTLQGTNGESTTQGLDNLTKRCQEYYNQGCRFAKWRCVLKIGQDEPSSLAIVENANVLARYASCCQQARIVPIVEPEILPDGDHNLERCQKVTETVLAAVYKALNDHHVYLEGTLLKPNMVTPGQSCPQKASPQEVAQATVTALQRTVPAAVPGIVFLSGGQSEEEASVNLNAINQYQGKKPWALSFSYGRALQASALRAWQGKPENIGAGQKELLQRAKANVLAHKGQYVAGSIPSLASAKSNFVAQHKY
% responders of in-vitro T cell proliferation test, Allergic ([3]; T cell lines from HDM allergic individuals (n=30)): 21% | % responders of in-vitro T cell proliferation test, Non-allergics ([3]; T cell lines from non-allergics (n=8)): 38% | % HDM allergic individuals with cytokine production in ex-vivo T cell assay IL-5 ([4]; HDM allergic individuals, IL-5): 6% | % HDM allergic individuals with cytokine production in ex-vivo T cell assay IL-9 ([4]; HDM allergic individuals, IL-9): 6% | % HDM allergic individuals with cytokine production in ex-vivo T cell assay IL-10 ([4]; HDM allergic individuals, IL-10): 44% | % HDM allergic individuals with cytokine production in ex-vivo T cell assay IL-13 ([4]; HDM allergic individuals, IL-13): 19% | % HDM allergic individuals with cytokine production in ex-vivo T cell assay IL-17 ([4]; HDM allergic individuals, IL-17): 38% | % HDM allergic individuals with cytokine production in ex-vivo T cell assay IL-31 ([4]; HDM allergic individuals, IL-31): 0% | % HDM allergic individuals with cytokine production in ex-vivo T cell assay INF-g ([4]; HDM allergic individuals, INF-g): 31% | % non-allergic individuals with cytokine production in ex-vivo T cell assay IL-5 ([4]; non-allergic individuals, IL-5): 0% | % non-allergic individuals with cytokine production in ex-vivo T cell assay IL-9 ([4]; non-allergic individuals, IL-9): 0% | % non-allergic individuals with cytokine production in ex-vivo T cell assay IL-10 ([4]; non-allergic individuals, IL-10): 83% | % non-allergic individuals with cytokine production in ex-vivo T cell assay IL-13 ([4]; non-allergic individuals, IL-13): 0% | % non-allergic individuals with cytokine production in ex-vivo T cell assay IL-17 ([4]; non-allergic individuals, IL-17): 67% | % non-allergic individuals with cytokine production in ex-vivo T cell assay IL-31 ([4]; non-allergic individuals, IL-31): 0% | % non-allergic individuals with cytokine production in ex-vivo T cell assay INF-g ([4]; non-allergic individuals, INF-g): 33% | # of individuals of 14 with positive BAT test ([1]; 1 ng/ml): 0 | # of individuals of 14 with positive BAT test ([1]; 10 ng/ml): 0 | # of individuals of 14 with positive BAT test ([1]; 100 ng/ml): 0 | # of individuals of 14 with positive BAT test ([1]; 1000 ng/ml): 0
